Tests used:
[1] = target: T1, human FAP on HEK293-hFAP cells (human, UniProt Q12884 1-760); assay: flow cytometry on HEK293-hFAP cells, 1 µg protein, anti-human IgG detection
T1 construct: whole, on cells; also called human FAP-expressing cell line
T1 sequence (looked up): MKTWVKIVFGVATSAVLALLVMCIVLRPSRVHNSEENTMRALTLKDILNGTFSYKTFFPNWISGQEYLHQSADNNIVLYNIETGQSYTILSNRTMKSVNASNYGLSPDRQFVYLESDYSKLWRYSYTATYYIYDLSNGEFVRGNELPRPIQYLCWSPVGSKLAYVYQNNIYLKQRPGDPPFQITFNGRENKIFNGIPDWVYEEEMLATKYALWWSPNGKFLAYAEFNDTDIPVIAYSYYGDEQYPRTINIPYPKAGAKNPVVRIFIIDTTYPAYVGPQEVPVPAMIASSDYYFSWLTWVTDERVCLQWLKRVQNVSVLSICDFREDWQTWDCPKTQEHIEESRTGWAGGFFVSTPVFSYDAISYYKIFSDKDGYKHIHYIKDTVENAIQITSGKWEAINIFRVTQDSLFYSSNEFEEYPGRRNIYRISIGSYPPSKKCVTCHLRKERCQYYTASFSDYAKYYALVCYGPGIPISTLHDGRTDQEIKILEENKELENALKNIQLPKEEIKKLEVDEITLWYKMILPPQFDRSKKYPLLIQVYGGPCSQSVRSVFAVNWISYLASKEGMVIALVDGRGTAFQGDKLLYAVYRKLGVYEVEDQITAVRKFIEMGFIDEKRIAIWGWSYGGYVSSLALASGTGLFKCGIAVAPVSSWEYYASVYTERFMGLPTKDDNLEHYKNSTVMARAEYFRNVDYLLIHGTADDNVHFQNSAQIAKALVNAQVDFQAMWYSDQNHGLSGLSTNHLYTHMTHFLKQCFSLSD
Method: (§1) Specifically, the cell line was prepared by suspending in a FACS buffer solution at 1×10⁵ cells/100 μL, and treated with 1 μg each of T3.10, T3.01, T3.05, T3.06, T3.14, and T3.18. The cells were washed twice with a FACS buffer solution. The cells were stained with an anti-human IgG antibody (Biolegend). The negative control sample was stained only with an anti-human IgG antibody (Biolegend). The expression ratio of the stained cells was measured using BD LSR and analyzed using FlowJo software.

[2] = target: T1, human FAP on HEK293-hFAP cells; assay: flow cytometry on HEK293-hFAP cells, 1 ug protein per 1x10^5 cells, anti-human IgG detection (axis TMEkine-PE)
Method: as §1

human LTβR on A375 cells = human LTβR on A375 cells (human, UniProt P36941 31-435); assay: cell-based or functional assay
Sequence of human LTβR on A375 cells (P36941 31-435): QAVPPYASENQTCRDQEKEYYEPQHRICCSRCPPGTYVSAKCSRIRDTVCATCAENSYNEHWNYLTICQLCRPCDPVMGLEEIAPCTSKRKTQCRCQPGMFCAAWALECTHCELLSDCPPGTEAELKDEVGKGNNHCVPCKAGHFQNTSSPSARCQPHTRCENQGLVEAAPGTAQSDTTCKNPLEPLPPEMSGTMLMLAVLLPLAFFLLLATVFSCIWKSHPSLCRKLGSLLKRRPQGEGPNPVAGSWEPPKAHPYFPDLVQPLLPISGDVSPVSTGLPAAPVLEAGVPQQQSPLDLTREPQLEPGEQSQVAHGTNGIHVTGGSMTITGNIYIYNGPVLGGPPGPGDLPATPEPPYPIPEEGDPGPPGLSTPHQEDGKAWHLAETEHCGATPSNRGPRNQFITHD

[3] = target: T2, recombinant human herpes virus entry mediator (HVEM) (human, UniProt Q92956 39-202); assay: sandwich ELISA: plate coated with recombinant human HVEM 1 ug/mL, fusion protein from 1 nM in serial dilution, detected with biotinylated recombinant human FAP and streptavidin conjugate, OD 450 nm
T2 construct: neither construct is described; also called human HVEM; recombinant human HVEM protein (R&D systems)
T2 sequence (looked up): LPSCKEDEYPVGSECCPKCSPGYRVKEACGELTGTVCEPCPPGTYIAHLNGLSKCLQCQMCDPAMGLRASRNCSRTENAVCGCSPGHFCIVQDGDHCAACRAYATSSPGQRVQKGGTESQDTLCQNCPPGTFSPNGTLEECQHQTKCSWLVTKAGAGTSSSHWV
Method: Considering that LIGHT of the fusion protein must bind to the herpes virus entry mediator (HVEM) for the action, it was confirmed that T3.01 binds to the recombinant human HVEM, as follows: [0370] (i) The recombinant human HVEM protein (R&D systems) was suspended at 1 μg/mL, dispensed in a 96-well immune plate, and treated for 24 hours. [0371] (ii) The wells were washed with a wash solution, and then blocking was performed for 1 hour with 1% BSA (bovine serum albumin, Sigma) solution. [0372] (iii) The wells were washed with a wash solution, and then T3.01, T3.14, T3.16, T3.17, T3.18 and T3.10, or T3.05, T3.06, T3.04, T3.14 and T3.10 were suspended at 1 nM and diluted by serial dilution. The wells were treated with the diluted T3.01, T3.14, T3.16, T3.17, T3.18 and T3.10, or T3.05, T3.06, T3.04, T3.14 and T3.10 for 2 hours. [0373] (iv) The wells were washed with a wash solution, and then treated with the human recombinant FAP-biotin diluted at 0.5 μg/mL for 2 hours. [0374] (v) The wells were washed with a wash solution, and then treated with streptavidin-RP for 20 minutes. [0375] (vi) The wells were washed with a wash solution, and then treated with a substrate solution for 20 minutes. [0376] (vii) The wells were treated with a stop solution, and the absorbance was measured at 450 nm.

Row | Binder | percent of cells bound [1] [%] | percent of cells in the positive gate [2] [%] | IL-8 secretion of A375 cells, EC50 (FIG. 15a) (human LTβR on A375 cells) [nM] | binding result [3]
1 | T3.06 (anti-hu FAP/hu scLIGHT3(195-198), hu IgG1 DANG) (bispecific antibody, Knob-into-hole) heavy: QVQLVQSGAEVKKPGASVKVSCKTSRYTFTEYTIHWVRQAPGQRLEWIGGINPNNGIPNYNQKFKGRVTITVDTSASTAYMELSSLRSEDTAVYYCARRRIAYGYDEGHAMDYWGQGTLVTVSSASTKGPSVFPLAPSSKSTSGGTAALGCLVKDYFPEPVTVSWNSGALTSGVHTFPAVLQSSGLYSLSSVVTVPSSSLGTQTYICNVNHKPSNTKVDKKVEPKSCDKTHTCPPCPAPELLGGPSVFLFPPKPKDTLMISRTPEVTCVVVAVSHEDPEVKFNWYVDGVEVHNAKTKPREEQYGSTYRVVSVLTVLHQDWLNGKEYKCKVSNKALPAPIEKTISKAKGQPREPQVYTLPPSRDELTKNQVSLWCLVKGFYPSDIAVEWESNGQPENNYKTTPPVLDSDGSFFLYSKLTVDKSRWQQGNVFSCSVMHEALHNHYTQKSLSLSPGK light: not shown not shown | ≥ 99 | 100 | – | –
2 | T3.15 (anti-hu FAP/hu scLIGHT-LIGHT(L118K, G119E)2, hu IgG1 DANG) (bispecific antibody) heavy: QVQLVQSGAEVKKPGASVKVSCKTSRYTFTEYTIHWVRQAPGQRLEWIGGINPNNGIPNYNQKFKGRVTITVDTSASTAYMELSSLRSEDTAVYYCARRRIAYGYDEGHAMDYWGQGTLVTVSSASTKGPSVFPLAPSSKSTSGGTAALGCLVKDYFPEPVTVSWNSGALTSGVHTFPAVLQSSGLYSLSSVVTVPSSSLGTQTYICNVNHKPSNTKVDKKVEPKSCDKTHTCPPCPAPELLGGPSVFLFPPKPKDTLMISRTPEVTCVVVAVSHEDPEVKFNWYVDGVEVHNAKTKPREEQYGSTYRVVSVLTVLHQDWLNGKEYKCKVSNKALPAPIEKTISKAKGQPREPQVYTLPPSRDELTKNQVSLWCLVKGFYPSDIAVEWESNGQPENNYKTTPPVLDSDGSFFLYSKLTVDKSRWQQGNVFSCSVMHEALHNHYTQKSLSLSPGK light: not shown not shown | – | – | 3.79 | –
3 | T3.05 (anti-hu FAP/hu scLIGHT3(226-231), hu IgG1 DANG) (bispecific antibody, Knob-into-hole) heavy: QVQLVQSGAEVKKPGASVKVSCKTSRYTFTEYTIHWVRQAPGQRLEWIGGINPNNGIPNYNQKFKGRVTITVDTSASTAYMELSSLRSEDTAVYYCARRRIAYGYDEGHAMDYWGQGTLVTVSSASTKGPSVFPLAPSSKSTSGGTAALGCLVKDYFPEPVTVSWNSGALTSGVHTFPAVLQSSGLYSLSSVVTVPSSSLGTQTYICNVNHKPSNTKVDKKVEPKSCDKTHTCPPCPAPELLGGPSVFLFPPKPKDTLMISRTPEVTCVVVAVSHEDPEVKFNWYVDGVEVHNAKTKPREEQYGSTYRVVSVLTVLHQDWLNGKEYKCKVSNKALPAPIEKTISKAKGQPREPQVYTLPPSRDELTKNQVSLWCLVKGFYPSDIAVEWESNGQPENNYKTTPPVLDSDGSFFLYSKLTVDKSRWQQGNVFSCSVMHEALHNHYTQKSLSLSPGK light: not shown not shown | ≥ 99 | 99.8 | – | no binding (tested: 1000 pM)
4 | T3.16 (anti-hu FAP/hu scLIGHT(226-231)-LTb2, hu IgG1 DANG) (bispecific antibody, Knob-into-hole) heavy: QVQLVQSGAEVKKPGASVKVSCKTSRYTFTEYTIHWVRQAPGQRLEWIGGINPNNGIPNYNQKFKGRVTITVDTSASTAYMELSSLRSEDTAVYYCARRRIAYGYDEGHAMDYWGQGTLVTVSSASTKGPSVFPLAPSSKSTSGGTAALGCLVKDYFPEPVTVSWNSGALTSGVHTFPAVLQSSGLYSLSSVVTVPSSSLGTQTYICNVNHKPSNTKVDKKVEPKSCDKTHTCPPCPAPELLGGPSVFLFPPKPKDTLMISRTPEVTCVVVAVSHEDPEVKFNWYVDGVEVHNAKTKPREEQYGSTYRVVSVLTVLHQDWLNGKEYKCKVSNKALPAPIEKTISKAKGQPREPQVYTLPPSRDELTKNQVSLWCLVKGFYPSDIAVEWESNGQPENNYKTTPPVLDSDGSFFLYSKLTVDKSRWQQGNVFSCSVMHEALHNHYTQKSLSLSPGK light: not shown not shown | – | – | – | no binding (tested: 1000 pM)
5 | T3.17 (anti-hu FAP/hu scLIGHT(195-198)-LTb2, hu IgG1 DANG) (bispecific antibody, Knob-into-hole) heavy: QVQLVQSGAEVKKPGASVKVSCKTSRYTFTEYTIHWVRQAPGQRLEWIGGINPNNGIPNYNQKFKGRVTITVDTSASTAYMELSSLRSEDTAVYYCARRRIAYGYDEGHAMDYWGQGTLVTVSSASTKGPSVFPLAPSSKSTSGGTAALGCLVKDYFPEPVTVSWNSGALTSGVHTFPAVLQSSGLYSLSSVVTVPSSSLGTQTYICNVNHKPSNTKVDKKVEPKSCDKTHTCPPCPAPELLGGPSVFLFPPKPKDTLMISRTPEVTCVVVAVSHEDPEVKFNWYVDGVEVHNAKTKPREEQYGSTYRVVSVLTVLHQDWLNGKEYKCKVSNKALPAPIEKTISKAKGQPREPQVYTLPPSRDELTKNQVSLWCLVKGFYPSDIAVEWESNGQPENNYKTTPPVLDSDGSFFLYSKLTVDKSRWQQGNVFSCSVMHEALHNHYTQKSLSLSPGK light: not shown not shown | – | – | – | no binding (tested: 1000 pM)

From US20250368754A1 (KANAPH THERAPEUTICS, published 2025)
